We go through 19 sequences from the DeepSol protein solubility set.

The series is described as follows: soluble on expression in E. coli; label from the status in PepcDB or PDB records.
Regarding “SLSGRIVYNFNPGWRFHRGDIKGAEAVRFDDTSWQVVSVPHTVELMPAEASGCRNYQGVAWYRKHFVIPQDMKGKEVSLHFEGAMGKQVIYLNGKRVQEHLGGYLPFTVQLTEQGVQPGDSCLLAVMTDNSDDKNFPPGKRQYTLDFAYHGGIYRDVWMIGKSSVAITDALEADKVAGGGVFVHFDNISGKKAEVYVDTEVHNSGKQTRTVAVETVLADAGDVPVKRVSQQVKLQAGESKTVRQRFAVRNPKLWSPDSPYLYRIQSRVKAGHEVLDGGVTRVGIRKAEFKGKDGFWLNGKPFGQLVGANRHQDFAYVGNALPNSQQWRDAKRLRDAGCTIIRVAHYPQDPAFMDACDEMGLFVIVATPGWQYWNKNPEFAKLVHRNTREMIRRDRNHPSVLMWEPILNETPYPRDFALEALRITREEFPYPGRPVAAADVHSKGVAENYDVVYGWPGDDEKADRPEQCIFTREFGENVDDWYAHNNNNRASRSWGERPLLVQALSLSKSYDEMYRTTGQFVGGAQWHPFDHQRGYHPDPYFGGIYDAFRQPKYAYYAFRSQSAATLKHPVAECGPMVFIAHEMSPFSDADVVVFSNCDSVRLSVYDGTESRTLPVVHAQGHMPNAPVIFKDVWDFWEAREYSYKQKNWQKVNMVAEGIIDGKVVCTYKRMPSRRSTKLRMYVDTEGKQLVADGSDFIVVVAEVTDDSGNVRRLAKENIVFTVEGEGRIIGDASINANPRTVEFGSAPVLIRSTRKPGKIKVKAHVQFEGTNAPVATEIELESIPSELPFCYTEEG”, the “soluble on expression in E. coli” value is given as “not soluble”.

Turning to “SLSKKATYPKVMCTQHPDSASKYISTQEEPGEAIEAAVVFGCDEYMPDYEGKATPYHQNVQIVSRFIEETDLIPGKDIFITPRAPSAAQENRFRQLMVMMSIAEANHGALEYSDVQAINEFVHPMTGTVGEILDAQQHMVDVGELAKKEFGVAMEVPRIIPLIEDAPALLHAKELAENTLLSWEKRFGAAPEKFRVFLGKSDSALSFGHVASTLSCKYAISGISELDLELDTSTGIIFGAGTLPFRGHLSLKNAENFFREYRGIGTITLQSAVRYSHDKGEAEALVRLAEERLPESPEIYSGEEKEEIVNLIGIFGARYNRIIREMSCTINQLAGLLPQQRDRLMHKGTGGYSRNVPDISGLVCLCRKDVGKELSASMPAEDLNLPRAIKFTGALYSIGLPPEFIGTGTALEEAREKLGEEACERLLKKYFPSLASDLSFASGYLDLNVASRFLPEACLKEIRKDIEVLRDTFSLKVQPEPSYRILLEMMQPDLLQAGTKGNCMDEEVSQLVCSTLTKMGKIRKALG”, the “soluble on expression in E. coli” value is listed as “not soluble”. With “SLSSLDAVLSQDLIVADGPAVEVGDSLEVAYTGWLFQNHVLGQVFDSTANKDKLLRLKLGSGKVIKGWEDGMLGMKKGGKRLLIVPPACAVGSEGVIGWTQATDSILVFEVEVRRVKFAR” the entry was “soluble”; with “SLTTSTALVLDINNANLDQQQAFAITAANRDEILQAASSIRLGDVMSVHDFGRSATDASYLDTMLEDVKVIDQKESGKQLNEIAFLSRQISDSVQPSDLQRVISRIPIIGFVISRLTFMQRRALNRFDSVKGQMDILADGISSISTGYLEQNVKLDAMYNDVLADIRAQGINIVASKLVIDSIEGELQTRQEEFKKNKTNTLLSIEINDIQYQLDTLKKRRKDMISMQQKSFDDLTMLRMMQQNNLALVDKFRSVEELTLPAAKRGHLIVDALEKQNAGVKLIEAIDDATNALALRQAELVKDNTIRIAKQSHRSVYDAKTLDRISTLMNEAIAEAHAIHKSNSDGHLALEKRAIEWQEERRQRLINGMGKNKLSNH”, “not soluble”; with “SLTTTEVVMENVTAFWEEGFGELFEKAKQNNNNRKTSNGDDSLFFSNFSLLGTPVLKDINFKIERGQLLAVAGSTGAGKTSLLMMIMGELEPSEGKIKHSGRISFCSQFSWIMPGTIKENIIFGVSYDEYRYRSVIKACQLEEDISKFAEKDNIVLGEGGITLSGGQRARISLARAVYKDADLYLLDSPFGYLDVLTEKEIFESCVCKLMANKTRILVTSKMEHLKKADKILILHEGSSYFYGTFLELYHYPADRFVAGFIGSPKMNFLPVKVTATAIDQVQVELPMPNRQQVWLPVESRDVQVGANMSLGIRPEHLLPSDIADVILEGEVQVVEQLGNETQIHIQIPSIRQNLVYRQNDVVLVEEGATFAIGLPPEDCHLFREDGTACRRLHKEPGV”, “soluble”. The entry for “SLTTTEVVMENVTAFWEEGGTPVLKDINFKIERGQLLAVAGSTGAGKTSLLMMIMGELEPSEGKIKHSGRISFCSQFSWIMPGTIKENIIFGVSYDEYRYRSVIKACQLEEDISKFAEKDNIVLGEGGITLSGGQRARISLARAVYKDADLYLLDSPFGYLDVLTEKEIFESCVCKLMANKTRILVTSKMEHLKKADKILILHEGSSYFYGTFSELQNLQPDFSSKLGPSAQLKKKLQALKKKNAQLKWKLQALKKKLAQ” is “soluble”. The entry for “SLVNMNVPDMILYNGKITTLDPSQPEVSAIAITDGLITAVGGDELLNSATEKTKKIDLKRKRAIPGLNDSHIHVIRGGLHYNMELRWEGVPSITIALEMLKEQARRTPAPQWVRVVGGWSEFQFKERRMPTLEEINAVSEDTPVFVLHLYDRALVNRAGLRALGYTKDTPDPPGCLIERDKRGNPTGLLIANPNASILYSSLGKAPILNFDDQINSTRHFMRELNRLGITSAIDAGGGFQNYPDDYRVVEHLAEKEQLTLRIAYNLFTQNPNHEYEDFASWAKIVSPGQGNDKYKMNGAGEMLVFSAADFEKFQMPRPELATMMEADLKKVISLLVENRWPFRLHATYDESITRFLNVFEEVNKEIPFNGLRWWFDHAETISDRSMERVKALNGGIAIQDRMAFQGEYFVDLYGKEAAKRTPPIYRMLDLGIPVGAGSDATRVSSYNPWVALYWMVAGKTIGGLSIYDEKNKLDRKVALELYSKGSAWFSGDEGKKGTLAVGQFADIAVLSADYFTVPEEEIKDLESLLTIMGGQVVYGNDEFKNLSPELPPASPDWSPTGVYGYGGANLAHTILSHDSHDNKLHSCSNPLHQHTHTVIGKDGTKWGIGCTCFAF” is “soluble”. Take “SLVTVSDVKQYHFCKAIPWINYVMGYREPSTFSMEEGKKISYEEVVKSLNLTTPVKYEVCLSYNGLSGCIDILAGDRKYTVVEVKAFKRGNFSHFRYQLLAYAYLVRKRLGIVERAILVMEGKKVLEIEPTEEHYRYIENVVKKIEEIVNSEKLPAVNVEKCDFCQYRRICPVSVWS”: the “soluble on expression in E. coli” value is recorded as “not soluble”. As for “SLWYYLFKYIFMGPLFTLLGRPKVEGLEYIPSSGPAILASNHLAVADSFYLPLVVRRRIWFLAKSEYFTGTGLKGWINRWFYSVSGQVPIDRTNADSAQGALQTAVVLLGQGKLLGMYPEGTRSPDGRLYKGKTGLARLALHTGVPVIPVAMIGTNVVNPPGRKMLRFGRVTVRFGKPMDFSRFEGLAGNHFIERAVTDEVIYELMGLSGQEYVDIYAASVKDGRNAGGAGANPNSTDAARIPETAAEG”, the “soluble on expression in E. coli” value is “not soluble”. With “SLYATPIGYADTRFETAADAPRQGVETPYAANVQVYESFRGGLVGLEPDDRVVVVWWADDADRDVLAVRDGDRGVFTTRSPARPNPVCITPCELLAVDAADGTLAIRGWIWRTARRSWI” the entry was “soluble”; with “SMCEKVISVGQTVITKHRNTRYYSCRVMAVTSQTFYEVMFDDGSFSRDTFPEDIVSRDCLKLGPPAEGEVVQVKWPDGKLYGAKYFGSNIAHMYQVEFEDGSQIAMKREDIYTLDEELPKRVK”, “soluble”. With “SMKAIVVINLVKINKKIIPDKIYVYRLFNDPEEELQKEGYSIYRLAYENVGIVIDPENLIIATTKELEYEGEFIPEGEISFSELRNDYQSKLVLRLLKENGIGEYELSKLLRKFRKPKTFGDYKVIPSVEMSVIKHDEDFYLVIHIIHQIQSMKTLWELVNKDPKELEEFLMTHKENLMLKDIASPLKTVYKPCFEEYTKKPKLDHNQEIVKYWYNYHIERYWNTPEAKLEFYRKFGQVDLKQPAILAKFASKIKKNKNYKIYLLPQLVVPTYNAEQLESDVAKEILEYTKLMPEERKELLENILAEVDSDIIDKSLSEIEVEKIAQELENKIRVRDDKGNSVPISQLNVQKSQLLLWTNYSRKYPVILPYEVPEKFRKIREIPMFIILDSGLLADIQNFATNEFRELVKSMYYSLAKKYNSLAKKARSTNEIGLPFLDFRGKEKVITEDLNSDKGIIEVVEQVSSFMKGKELGLAFIAARNKLSSEKFEEIKRRLFNLNVISQVVNEDTLKNKRDKYDRNRLDLFVRHNLLFQVLSKLGVKYYVLDYRFNYDYIIGIDVAPMKRSEGYIGGSAVMFDSQGYIRKIVPIKIGEQRGESVDMNEFFKEMVDKFKEFNIKLDNKKILLLRDGRITNNEEEGLKYISEMFDIEVVTMDVIKNHPVRAFANMKMYFNLGGAIYLIPHKLKQAKGTPIPIKLAKKRIIKNGKVEKQSITRQDVLDIFILTRLNYGSISADMRLPAPVHYAHKFANAIRNEWKIKEEFLAEGFLYFV” the entry was “soluble”; with “SMPDEVPLDEQCERLPYDASKWEFARERLKLGKSLGRGAFGKVVQASAFGIKKSPTCRTVAVKMLKEGATASEYKALMTELKILTHIGHHLNVVNLLGACTKQGGPLMVIVEYCKYGNLSNYLKSKRDLFFLNKDAALHMEPKKEKMEPGLEQGKKPRLDSVTSSESFASSGFQEDKSLSDVEEEEDSDGFYKEPITMEDLISYSFQVARGMEFLSSRKCIHRDLAARNILLSENNVVKICDFGLARDIYKNPDYVRKGDTRLPLKWMAPESIFDKIYSTKSDVWSYGVLLWEIFSLGGSPYPGVQMDEDFCSRLREGMRMRAPEYSTPEIYQIMLDCWHRDPKERPRFAELVEKLGDLL”, “soluble”.

Turning to “SMPVRRVRVVKQEAGGLGISIKGGRENRMPILISKIFPGLAADQSRALRLGDAILSVNGTDLRQATHDQAVQALKRAGKEVLLEVKFIREVNTVV”, the “soluble on expression in E. coli” value was “soluble”. The entry for “SMQPPIAKPGETWILQAKRSDEFNVKDATKWNFQTENYGVWSWKNENATVSKGKLKLTTKRESHQRTFWDGCNQQQVANYPLYYTSGVAKSRATGNYGYYEARIKGASTFPGVSPAFWMYSTIDRSLTKEGDVQYSEIDVVELTQKSAVRESDHDLHNIVVKNGKPTWMRPGSFPQTNHNGYHLPFDPRNDFHTYGVNVTKDKITWYVDGEIVGEKDNLYWHRQMNLTLSQGLRAPHTQWKCNQFYPSANKSAEGFPTSMEVDYVRTWVKV” is “soluble”; for “SMRSGSSMKEEPLGSGMNAVRTWMQGAGVLDANTAAQSGVGLARAHFEKQPPSNLRKSNFFHFVLALYDRQGQPVEIERTAFVGFVEKEKEANSEKTNNGIHYRLQLLYSNGIRTEQDFYVRLIDSMTKQAIVYEGQDKNPEMCRVLLTHEIMCSRCCDKKSCGNRNETPSDPVIIDRFFLKFFLKCNQNCLKNAGNPRDMRRFQVVVSTTVNVDGHVLAVSDNMFVHNNSKHGRRARRLDPS” it is “soluble”; for “SMSDESVYKVLLLGAPGVGKSALARIFGGVEDGPEAEAAGHTYDRSIVVDGEEASLMVYDIWEQDGGRWLPGHCMAMGDAYVIVYSVTDKGSFEKASELRVQLRRARQTDDVPIILVGNKSDLVRSREVSVDEGRACAVVFDCKFIETSAALHHNVQALFEGVVRQIRLRRDSKEA” it is “soluble”. The entry for “SMSEATPCIKAISPSEGWTTGGATVIIIGDNFFDGLQVVFGTMLVWSELITPHAIRVQTPPRHIPGVVEVTLSYKSKQFCKGAPGRFVYTALNEPTIDYGFQRLQKVIPRHPGDPERLPKEVLLKRAADLVEALYGMPHNNQEIILKRAADIAEALYSV” is “soluble”; for “SNADDYTAGKEYVELSSPVPVSQPGKIEVVELFWYGCPHCYAFEPTIVPWSEKLPADVHFVRLPALFGGIWNVHGQMFLTLESMGVEHDVHNAVFEAIHKEHKKLATPEEMADFLAGKGVDKEKFLSTYNSFAIKGQMEKAKKLAMAYQVTGVPTMVVNGKYRFDIGSAGGPEETLKLADYLIEKERAAAKK” it is “soluble”.
